Target: T1, STI1 TPR2A domain (residues 217-352) (mouse, UniProt Q60864 217-352)
T1 construct: STI1, mouse, TPR2A domain, residues 217-352; The tag is TEV-cleavable
Details: both partners purified

T1 sequence (Q60864 217-352): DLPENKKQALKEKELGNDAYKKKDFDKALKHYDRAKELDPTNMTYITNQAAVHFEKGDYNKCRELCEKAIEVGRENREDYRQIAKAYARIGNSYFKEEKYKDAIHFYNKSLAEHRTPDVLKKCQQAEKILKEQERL

binding result: binds
B1: Hsp90 pentapeptide (MEEVD), C-terminus of Hsp90 (peptide)
peptide: MEEVD
notes: pentapeptide motif of the C-terminus of Hsp90; also called Hsp90 peptide
